Results taken from PMC11074293 (Nature Communications, 2024).

B1: KLHL22^1–178 (domain or fragment, human, UniProt Q53GT1 1-178, looked up)
chain: MAEEQEFTQLCKLPAQPSHPHCVNNTYRSAQHSQALLRGLLALRDSGILFDVVLVVEGRHIEAHRILLAASCDYFRGMFAGGLKEMEQEEVLIHGVSYNAMCQILHFIYTSELELSLSNVQETLVAACQLQIPEIIHFCCDFLMSWVDEENILDVYRLAELFDLSRLTEQLDTYILKN
notes: TEV site ENLYFQG: a residue of the site may be left at the N-terminus after cleavage; source: E. coli BL21(DE3), purified (Ni-IDA, SEC), His-MBP tag removed with TEV protease; not shown: His6, N-terminal, cleaved; MBP, N-terminal, cleaved
B2: KLHL22 (full length, N-terminal His6) (natural protein, human, UniProt Q53GT1 1-634, looked up)
chain: MAEEQEFTQLCKLPAQPSHPHCVNNTYRSAQHSQALLRGLLALRDSGILFDVVLVVEGRHIEAHRILLAASCDYFRGMFAGGLKEMEQEEVLIHGVSYNAMCQILHFIYTSELELSLSNVQETLVAACQLQIPEIIHFCCDFLMSWVDEENILDVYRLAELFDLSRLTEQLDTYILKNFVAFSRTDKYRQLPLEKVYSLLSSNRLEVSCETEVYEGALLYHYSLEQVQADQISLHEPPKLLETVRFPLMEAEVLQRLHDKLDPSPLRDTVASALMYHRNESLQPSLQSPQTELRSDFQCVVGFGGIHSTPSTVLSDQAKYLNPLLGEWKHFTASLAPRMSNQGIAVLNNFVYLIGGDNNVQGFRAESRCWRYDPRHNRWFQIQSLQQEHADLSVCVVGRYIYAVAGRDYHNDLNAVERYDPATNSWAYVAPLKREVYAHAGATLEGKMYITCGRRGEDYLKETHCYDPGSNTWHTLADGPVRRAWHGMATLLNKLYVIGGSNNDAGYRRDVHQVACYSCTSGQWSSVCPLPAGHGEPGIAVLDNRIYVLGGRSHNRGSRTGYVHIYDVEKDCWEEGPQLDNSISGLAACVLTLPRSLLLEPPRGTPDRSQADPDFASEVMSVSDWEEFDNSSED
notes: Kelch-like protein 22 (KLHL22), human, full length; Dimer in the cryo-EM structure of CRL3^KLHL22; also called His6-KLHL22
B3: KLHL12^1–161 (domain or fragment, human, UniProt Q53G59 1-161, looked up)
chain: MGGIMAPKDIMTNTHAKSILNSMNSLRKSNTLCDVTLRVEQKDFPAHRIVLAACSDYFCAMFTSELSEKGKPYVDIQGLTASTMEILLDFVYTETVHVTVENVQELLPAACLLQLKGVKQACCEFLESQLDPSNCLGIRDFAETHNCVDLMQAAEVFSQKH
notes: as for B1

What was measured:
[1] = biological target: T1, CUL3^Δ1–13-RBX1 (human, UniProt Q13618 14-768; P62877 1-108); assay: ITC; ITC200; CUL3-RBX1 (120 μM) in the syringe titrated into KLHL22^1–178 (10 μM) in the cell, 25 °C, one-site model; repeated with KLHL22^1–178 (120 μM) into CUL3-RBX1 (12 μM); conditions: both partners purified
T1 construct: Cullin-3 (CUL3), human, residues 1-13 deleted (partial deletion of the NA motif); RBX1, human, without a tag; source: purified; host stated only for wild-type CUL3-RBX1 (SF9); copies: 1 + 1

[2] = biological target: T2, CUL3^Δ1–24-RBX1 (human, UniProt Q13618 25-768; P62877 1-108); assay: as above; conditions: both partners purified
T2 construct: Cullin-3 (CUL3), human, residues 1-24 (the whole NA motif) deleted; RBX1, human, without a tag; source: purified; host stated only for wild-type CUL3-RBX1 (SF9); copies: 1 + 1

[3] = biological target: T3, CUL3^WT-RBX1 (human, UniProt Q13618 1-768; P62877 1-108); assay: as above; conditions: both partners purified
T3 construct: Cullin-3 (CUL3), human, full length; also called CUL3-RBX1; (CUL3-His6)-RBX1; source: SF9 insect cells, co-expressed from pFastbac-dual, purified (Ni-IDA, SEC); copies: 1 + 1

[4] = biological target: the molecule itself; assay: SEC-MALS; WTC-015S5 column, low salt buffer; complexes at 2 mg/ml, KLHL22^1–178 and KLHL12^1–161 alone at 3 mg/ml
[5] = biological target: the molecule itself; assay: cryo-EM structure; full-length CUL3-RBX1-KLHL22 co-expressed in SF9, purified, GraFix (glutaraldehyde gradient); C2 symmetry, 3.8 Å overall, 3.3 Å for the dimer assembly region
[6] = biological target: T1, CUL3^Δ1–13-RBX1; assay: SEC; analytical SEC, Superdex 200 Increase 10/300 GL, 20 mM Tris-HCl pH 8.0, 150 mM NaCl, 1% glycerol, 1 mM TCEP; purified proteins mixed 1:1 (also 2:1 and 4:1 CUL3-RBX1 to BTB protein), 10 min on ice; conditions: both partners purified
[7] = biological target: T2, CUL3^Δ1–24-RBX1; assay: as above; conditions: both partners purified
[8] = biological target: T3, CUL3^WT-RBX1; assay: as above; conditions: both partners purified

T1 sequence (Q13618 14-768, stated change not applied, chain 1 of 2): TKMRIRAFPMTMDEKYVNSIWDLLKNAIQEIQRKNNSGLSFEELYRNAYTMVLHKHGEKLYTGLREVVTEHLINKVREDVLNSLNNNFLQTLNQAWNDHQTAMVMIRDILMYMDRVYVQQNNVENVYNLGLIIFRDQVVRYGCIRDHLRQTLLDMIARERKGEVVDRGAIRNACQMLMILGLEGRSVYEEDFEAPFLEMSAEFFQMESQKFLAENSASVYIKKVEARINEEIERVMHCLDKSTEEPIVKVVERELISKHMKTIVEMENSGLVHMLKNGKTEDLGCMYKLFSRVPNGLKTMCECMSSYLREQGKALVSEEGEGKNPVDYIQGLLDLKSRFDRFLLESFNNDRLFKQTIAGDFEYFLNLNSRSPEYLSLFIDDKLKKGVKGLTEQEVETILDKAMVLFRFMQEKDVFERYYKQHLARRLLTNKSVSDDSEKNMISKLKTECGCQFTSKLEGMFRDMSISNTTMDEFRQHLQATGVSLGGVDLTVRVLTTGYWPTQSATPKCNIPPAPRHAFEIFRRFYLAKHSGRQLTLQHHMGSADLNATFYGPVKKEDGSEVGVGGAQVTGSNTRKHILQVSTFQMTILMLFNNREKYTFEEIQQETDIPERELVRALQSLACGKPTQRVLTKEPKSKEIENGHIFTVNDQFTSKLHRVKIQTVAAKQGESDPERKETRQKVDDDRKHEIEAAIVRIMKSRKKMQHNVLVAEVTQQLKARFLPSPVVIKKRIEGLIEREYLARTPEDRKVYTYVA
T1 sequence (P62877 whole entry, stated change not applied, chain 2 of 2, the tested form may be a part): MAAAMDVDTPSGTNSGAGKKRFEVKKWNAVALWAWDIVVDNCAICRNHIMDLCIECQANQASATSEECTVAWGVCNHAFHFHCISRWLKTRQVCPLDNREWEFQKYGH
T2 sequence (Q13618 25-768, stated change not applied, chain 1 of 2): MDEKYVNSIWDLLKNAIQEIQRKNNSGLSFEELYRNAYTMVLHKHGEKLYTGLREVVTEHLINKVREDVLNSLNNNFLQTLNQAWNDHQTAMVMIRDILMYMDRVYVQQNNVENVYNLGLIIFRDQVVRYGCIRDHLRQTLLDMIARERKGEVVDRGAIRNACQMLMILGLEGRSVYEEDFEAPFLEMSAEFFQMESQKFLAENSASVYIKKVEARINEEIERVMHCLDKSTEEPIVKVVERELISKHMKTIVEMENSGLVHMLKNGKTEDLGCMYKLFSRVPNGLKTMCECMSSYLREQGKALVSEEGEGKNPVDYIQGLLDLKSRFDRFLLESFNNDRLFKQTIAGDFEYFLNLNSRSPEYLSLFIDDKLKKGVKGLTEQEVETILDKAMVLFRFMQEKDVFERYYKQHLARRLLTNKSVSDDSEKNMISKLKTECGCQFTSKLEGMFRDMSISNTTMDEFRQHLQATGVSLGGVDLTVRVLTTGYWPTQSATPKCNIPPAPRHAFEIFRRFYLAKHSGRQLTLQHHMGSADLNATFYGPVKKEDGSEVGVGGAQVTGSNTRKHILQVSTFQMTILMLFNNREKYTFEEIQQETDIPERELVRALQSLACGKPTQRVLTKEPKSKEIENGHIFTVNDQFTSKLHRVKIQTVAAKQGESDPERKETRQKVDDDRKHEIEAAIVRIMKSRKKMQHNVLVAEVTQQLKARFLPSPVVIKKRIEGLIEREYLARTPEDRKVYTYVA
T2 sequence (P62877 whole entry, stated change not applied, chain 2 of 2, the tested form may be a part): as the sequence (P62877 whole entry, stated change not applied, chain 2 of 2, the tested form may be a part) above
T3 sequence (Q13618 whole entry, chain 1 of 2): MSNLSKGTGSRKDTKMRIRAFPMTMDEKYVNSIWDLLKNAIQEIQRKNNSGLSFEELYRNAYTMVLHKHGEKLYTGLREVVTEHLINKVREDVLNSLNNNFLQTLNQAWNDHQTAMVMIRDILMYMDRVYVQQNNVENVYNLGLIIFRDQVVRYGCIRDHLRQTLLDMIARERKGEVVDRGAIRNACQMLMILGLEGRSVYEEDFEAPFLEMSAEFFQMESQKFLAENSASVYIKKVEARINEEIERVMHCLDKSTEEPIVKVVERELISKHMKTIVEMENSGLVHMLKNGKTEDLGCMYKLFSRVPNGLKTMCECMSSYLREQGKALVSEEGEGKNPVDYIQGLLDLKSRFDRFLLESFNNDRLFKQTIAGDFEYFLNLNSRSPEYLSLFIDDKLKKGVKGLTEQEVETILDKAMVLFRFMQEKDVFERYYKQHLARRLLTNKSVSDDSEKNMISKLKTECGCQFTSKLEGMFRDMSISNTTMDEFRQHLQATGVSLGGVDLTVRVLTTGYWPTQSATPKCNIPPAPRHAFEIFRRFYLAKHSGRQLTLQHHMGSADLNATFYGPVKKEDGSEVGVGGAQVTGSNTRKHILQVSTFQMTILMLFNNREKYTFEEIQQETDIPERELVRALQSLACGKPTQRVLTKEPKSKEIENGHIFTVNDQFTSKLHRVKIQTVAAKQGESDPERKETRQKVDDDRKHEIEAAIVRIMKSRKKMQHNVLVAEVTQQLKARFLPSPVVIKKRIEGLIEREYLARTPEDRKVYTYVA
T3 sequence (P62877 whole entry, chain 2 of 2): as the sequence (P62877 whole entry, stated change not applied, chain 2 of 2, the tested form may be a part) above

Row | Binder | Kd [1] [nM] | Kd [2] [nM] | Kd [3] [nM] | stoichiometry N [4] | binding result [5] | binding result [6] | binding result [7] | binding result [8]
1 | B1 | ~87 | ~383 | ~27 | 2 |  |  |  | 
2 | B2 |  |  |  |  | binds |  |  | 
3 | B3 |  |  |  | 2 |  | binds | binds | binds
